The numbers were not newly measured in publication PMC5419078, which cites them from elsewhere.

Like-named read-outs stand apart in the source and are kept apart here.

By Kd is commonly meant the constant that tells how readily two partners part at equilibrium.

Data set [1] addresses infliximab. In words: SPR. For orientation: SPR reads the build-up and loss of mass on a sensor chip optically.
Data set [2] has as its target etanercept ECD (Homo sapiens) (UniProt P20333). Briefly: SPR.
The target of data set [3] is infliximab.
The target in data set [4] is etanercept ECD (Homo sapiens) (UniProt P20333).
Sequence of etanercept ECD (Homo sapiens) (P20333 23-257): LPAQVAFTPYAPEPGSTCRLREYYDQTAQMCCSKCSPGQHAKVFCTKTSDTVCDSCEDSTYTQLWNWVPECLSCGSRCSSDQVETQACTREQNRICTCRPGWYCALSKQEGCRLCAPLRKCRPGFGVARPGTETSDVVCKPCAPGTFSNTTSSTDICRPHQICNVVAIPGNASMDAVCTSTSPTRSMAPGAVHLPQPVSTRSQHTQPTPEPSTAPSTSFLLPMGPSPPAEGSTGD

Sequence of TNF (P01375 77-233): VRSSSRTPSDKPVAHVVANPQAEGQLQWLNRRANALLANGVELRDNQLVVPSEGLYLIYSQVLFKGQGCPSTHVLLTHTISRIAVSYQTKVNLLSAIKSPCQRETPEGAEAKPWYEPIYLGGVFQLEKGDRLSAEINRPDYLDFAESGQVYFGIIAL
Sequence of infliximab (main, as listed by the source, chain 1 of 2, other chains not shown): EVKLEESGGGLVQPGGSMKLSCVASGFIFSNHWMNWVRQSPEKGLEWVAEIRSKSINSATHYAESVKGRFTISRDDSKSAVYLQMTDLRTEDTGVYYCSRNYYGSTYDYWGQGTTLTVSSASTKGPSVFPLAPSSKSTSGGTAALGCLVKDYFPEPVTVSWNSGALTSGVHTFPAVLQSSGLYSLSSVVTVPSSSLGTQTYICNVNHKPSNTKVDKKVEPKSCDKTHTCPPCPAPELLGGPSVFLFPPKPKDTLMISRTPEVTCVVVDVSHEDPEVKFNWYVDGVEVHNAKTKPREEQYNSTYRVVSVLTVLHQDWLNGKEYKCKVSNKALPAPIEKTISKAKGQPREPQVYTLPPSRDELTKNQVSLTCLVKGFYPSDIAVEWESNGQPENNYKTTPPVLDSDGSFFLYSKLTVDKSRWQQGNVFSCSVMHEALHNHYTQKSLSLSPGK

Take TNF (from UniProt P01375): the Kd is 0.0273 nM with infliximab [1], 0.0118 nM in data set [2], 0.0886 nM in the data set with infliximab [3] and 0.00566 nM in data set [4].
